Read-outs that look alike come from different tables or passages of the source.
What was measured:
hVEGF-A = biological target: T1, hVEGF-A (human, UniProt P15692-4 27-191, limits assumed); assay: phage competition ELISA, soluble CKP
T1 construct: also called human VEGF-A; WT

hVEGF-A (8-109) [1] = biological target: T2, hVEGF-A (8-109) (human, UniProt P15692 214-315); assay: spot phage ELISA
T2 sequence (looked up): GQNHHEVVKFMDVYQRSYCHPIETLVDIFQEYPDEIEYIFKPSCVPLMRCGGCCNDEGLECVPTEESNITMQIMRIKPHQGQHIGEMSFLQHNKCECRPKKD
Method: (§1) After four rounds of binding selection, individual phage clones were picked and inoculated into 450 μl 2YT media containing 50 µg/ml Carbenecillin and M13-KO7 helper phage in 96-well blocks, which were grown at 37° C. overnight. […] The plates were washed and bound phage was detected with anti-M13-HRP followed by TMB substrate. In these assays, phage binding to BSA alone was tested in parallel to assess background binding. […] Positive clones were subjected to DNA sequence analysis.

hVEGF-A (8-109) [2] = biological target: T2, hVEGF-A (8-109); assay: spot phage ELISA; remark: listed apart in the source
Method: as §1

hVEGF-A (8-109) [3] = biological target: T2, hVEGF-A (8-109); assay: phage competition ELISA (clone on phage; the concentration varied on the axis is that of hVEGF (8-109))
hVEGF-A (8-109) [4] = biological target: T2, hVEGF-A (8-109); assay: as above; remark: listed apart in the source

GCRTPWEPHDITCKQDSDCLAGCVCGPNGFCG (designed binder) [VEGF_CKP11]
IC50 (hVEGF-A): 80000 nM
ELISA (hVEGF-A (8-109) [1]): 4.1
S/N vs BSA (hVEGF-A (8-109) [1]): 57.5

GCVTPWKPHWINCKQDSDCLAGCVCGPNGFCG (designed binder) [VEGF_CKP13]
IC50 (hVEGF-A): 80000 nM
ELISA (hVEGF-A (8-109) [1]): 3.5
S/N vs BSA (hVEGF-A (8-109) [1]): 56.3

GCTTPWPPHEIMCKQDSDCLAGCVCGPNGFCG (designed binder) [VEGF_CKP12]
IC50 (hVEGF-A): 60000 nM
ELISA (hVEGF-A (8-109) [1]): 3.5
S/N vs BSA (hVEGF-A (8-109) [1]): 55.2

GCQDPTFNWALYCKQDSDCLAGCVCQMYQSCG (designed binder) [VEGF_CKP7]
IC50 (hVEGF-A): 12000 nM
ELISA (hVEGF-A (8-109) [1]): 3.4
S/N vs BSA (hVEGF-A (8-109) [1]): 54.5
ELISA (hVEGF-A (8-109) [2]): 0.1
S/N vs BSA (hVEGF-A (8-109) [2]): 1.3

GCDVMQPYWGCEMDFDCLAGCICHWYNSCGFS (designed binder) [9.63.44-1]
IC50 (read off the curve) (hVEGF-A (8-109) [3]): ~0.04 nM

GCDVMQPYWGCEMDFDCLAGCICHWYNSCGSR (designed binder) [9.63.44-4]
IC50 (read off the curve) (hVEGF-A (8-109) [3]): ~0.04 nM

GCDVMQPYWGCEMDFDCLAGCICHWYNSCGQV (designed binder) [9.63.44-2]
IC50 (read off the curve) (hVEGF-A (8-109) [3]): ~0.03 nM

GCDVMQPYWGCEMDFDCLAGCVCHWYNSCGGI (designed binder) [9.63.44-7]
IC50 (read off the curve) (hVEGF-A (8-109) [3]): ~0.03 nM

GCDVMQPYWGCEMDFDCLVGCVCHWYNSCGDE (designed binder) [9.63.44-10]
IC50 (read off the curve) (hVEGF-A (8-109) [4]): ~5 nM

GCDVMQPYWGCEMDFDCLAGCVCHWYNSCGPL (designed binder) [9.63.44-12]
IC50 (read off the curve) (hVEGF-A (8-109) [4]): ~0.1 nM

GCDVMQPYWGCEMDFDCLAGCVCHWYNSCGDL (designed binder) [9.63.44-11]
binding result (hVEGF-A (8-109) [4]): binds

GCDVMQPYWGCEMDFDCLAGCICHWYNSCGTS (designed binder) [9.63.44-8]
IC50 (read off the curve) (hVEGF-A (8-109) [4]): ~0.02 nM

GCDVMQPYWGCEMDFDCLAGCICHWYNSCGPT (designed binder) [9.63.44-5]
binding result (hVEGF-A (8-109) [3]): binds

GCDVMQPYWGCEMDFDCLAGCICHWYNSCGWK (designed binder) [9.63.44-14 (SEQ ID NO: 532)]
IC50 (read off the curve) (hVEGF-A (8-109) [4]): ~0.07 nM

GCDVMQPYWGCEMDFDCLAGCICHWYNSCGYA (designed binder) [9.63.44-3]
IC50 (read off the curve) (hVEGF-A (8-109) [3]): ~0.03 nM

GCDVMQPYWGCEMDFDCLAGCVCHWYNSCGSM (designed binder) [9.63.44-6]
binding result (hVEGF-A (8-109) [3]): binds

GCDVMQPYWGCEMDFDCLAGCICHWYNSCGLQ (designed binder) [9.63.44-9]
IC50 (read off the curve) (hVEGF-A (8-109) [4]): ~0.03 nM

GCDVMQPYWGCEMDFDCLAGCVCHWYNSCGQF (designed binder) [9.63.44-13]
IC50 (read off the curve) (hVEGF-A (8-109) [4]): ~0.3 nM

— patent US20200325187A1 (Genentech, published 2020)
